This passage reports protein production results from a protein production outcome set (Wang et al. 2014).

This data set in a line: label from the status in PepcDB records.

On to “MEDTTFTKVFVGGLAWETHKVSLRNYFEQFGDIVEAVVITDKSSGRSKGYGFVTFCDPEAAQKACVDPAPVIDGRRANCNLAAFGVQRSKPSSPIHGTFRFLSFDTLLLKTLHQEYM”, for which the protein production entry was “failed”.

For the sequence “MEDYGFEYSDEEQEEQDVDIENQYYNSKGMVETEPEEALSGFAEVVQMEPEKADWGFKALKQTVKIYYRLGKYKEMMEAYTEMLTYIKSAVTRNYSEKCINNIMDFVSGSASQNTGLLQEFYQTTLKALEEAKNERLWFKTNLKLCNIWFDIGEYRRMTKILKELHKSCQKEDGTDDQKKGSQLLEVYAIEIQIYTETKDNKKLKQLYHKALAIKSAIPHPRIMGIIRECGGKMHMAERQWEEAATDFFEAFKNYDEAGNQRRIQCLKYLVLANMLMESEVNPFDGQEAKPYKNDPEILAMTNLIAAYQRNEIIEFERILKSNRRTIMDDPFIRNYMEDLLKKVRTQVLLKLIKPYTKIGIPFISKELNVPETDVTELLVSLILDSRIDGHIDEMNRYLLRGDSGNGRKLHKAVDKWNSQLKSLSSNITSRVC”, the protein production entry is recorded as “failed”.

On to “MEEFQFTKRVHNILKIAAEEGESNIIQPVHLFIGMCKEGTGVCSELYMYLFRNVGTDFLEKLSLRKQDDLTDQEYEKIGQYKVSYKVLEILQIAKKRMERFQQVLMNEGHVIYALFRADTFIENPQIQKEILRIVEEPRDLAVDLKCFVPAYTHLTCHVRKANSSDFGKLVSFVSEEFGERWLHSIEYGFRTYKENVPIYIAEQKEVIVGFACYDVVRGKKGLFGPMGTAKQNRVKSVGKQLLHCSLHSMKQDGYEYAIIGQAGPVEFYERCCNARLIPIMDY”, for which the protein production entry was “failed”.

For “MEEKRRRARVQGAWAAPVKSQAIAQPATTAKSHLHQKPGQTWKNKEHHLSDREFVFKEPQQVVRRAPEPRVIDREGVYEISLSPTGVSRVCLYPGFVDVKEADWILEQLCQDVPWKQRTGIREDITYQQPRLTAWYGELPYTYSRITMEPNPHWHPVLRTLKNRIEENTGHTFNSLLCNLYRNEKDSVDWHSDDEPSLGRCPIIASLSFGATRTFEMRKKPPPEENGEYTYVERVKIPLDHGTLLIMEGATQADWQHRVPKEYHSREPRVNLTFRTVYPDPRGAPW”, the protein production entry was “failed”.

“MEELQEPLRGQLRLCFTQAARTSLLLLRLNDAALRALQECQRQQVRPVIAFQGHRGYLRLPGPGWSCLFSFIVSQCCQEGAGGSLDLVCQRFLRSGPNSLHCLGSLRERLIIWAAMDSIPAPSSVQGHNLTEDARHPESWQNTGGYSEGDAVSQPQMALEEVSVSDPLASNQGQSLPGSSREHMAQWEVRSQTHVPNREPVQALPSSASRKRLDKKRSVPVATVELEEKRFRTLPLVPSPLQGLTNQDLQEGEDWEQEDEDMDPRLEHSSSVQEDSESPSPEDIPDYLLQYRAIHSAEQQHAYEQDFETDYAEYRILHARVGTASQRFIELGAEIKRVRRGTPEYKVLEDKIIQEYKKFRKQYPSYREEKRRCEYLHQKLSHIKGLILEFEEKNRGS”: the protein production result is on record as “failed”.

As for “MEELSAAEPGPEPGPEPESAPESESEPGPAGAGDAPGDGVIVTRALTKRYRGGQLAVDGLDLTVPAGSVFGFLGPNGSGKTTTIRMLMGLIEPTSGTARVLGRPMPRSARTVLPHIGALIEGPALYGFLSGRDNLLRYDAADPTADPRTRRTRVAATLDRVGLTAAAGKKAKAYSLGMKQRLGLAAALLQPRRLLVLDEPTNGLDPQGMREIRSLVRELASDGTTVFLSSHLLDEIEQVCTHAAVMAQGRLITQGAVADLAAGARGRLVVTTPDVTDAARVLKEQGVADIVVAEDRVTGEPPDGELAELNAALVTAAVRVRGFGVERASLEDAFVALTGEGFDVAGLEHHHHHH”, the protein production result is listed as “failed”.

Take “MEELTQILKNNRTDDLTWFCSLSESELDLLISLKKLAIQRAKISGHQELADKFDLKLLRSLGLVLMEHARKRVQNDTSLAPSVVHQLRLLDNCNLLKTHVDDAVDIEEILTQICDNKSKKKARKRRR”: the protein production result is listed as “failed”.

Turning to “MEERMEMISERPKESMYSWNKTAEKSDFEAVEALMSMSCSWKSDFKKYVENRPVTPVSDLSEEENLLPGTPDFHTIPAFCLTPPYSPSDFEPSQVSNLMAPAPSTVHFKSLSDTAKPHIAAPFKEEEKSPVSAPKLPKAQATSVIRHTADAQLCNHQTCPMKAASILNYQNNSFRRRTHLNVEAARKNIPCAAVSPNRSKCERNTVADVDEKASAALYDFSVPSSETVICRSQPAPVSPQQKSVLVSPPAVSAGGVPPMPVICQMVPLPANNPVVTTVVPSTPPSQPPAVCPPVVFMGTQVPKGAVMFVVPQPVVQSSKPPVVSPNGTRLSPIAPAPGFSPSAAKVTPQIDSSRIRSHICSHPGCGKTYFKSSHLKAHTRTHTGEKPFSCSWKGCERRFARSDELSRHRRTHTGEKKFACPMCDRRFMRSDHLTKHARRHLSAKKLPNWQMEVSKLNDIALPPTPAPTQ”, the protein production entry was “not failed”.
